Measured values reported in US11773143B2, “Conformational epitopes in respiratory syncytial virus G protein central conserved region” (priority 2017, dated 2023).
Where no end group is shown, it is not given here.

T1: CX3CR1 (Homo sapiens, UniProt P49238)
T1 construct: THP-1 cells (a human leukemia monocytic cell line) washed twice and suspended in serum-free RPMI 1640 media; endogenous in cells; host or cells: THP-1
T1 sequence (P49238 1-355): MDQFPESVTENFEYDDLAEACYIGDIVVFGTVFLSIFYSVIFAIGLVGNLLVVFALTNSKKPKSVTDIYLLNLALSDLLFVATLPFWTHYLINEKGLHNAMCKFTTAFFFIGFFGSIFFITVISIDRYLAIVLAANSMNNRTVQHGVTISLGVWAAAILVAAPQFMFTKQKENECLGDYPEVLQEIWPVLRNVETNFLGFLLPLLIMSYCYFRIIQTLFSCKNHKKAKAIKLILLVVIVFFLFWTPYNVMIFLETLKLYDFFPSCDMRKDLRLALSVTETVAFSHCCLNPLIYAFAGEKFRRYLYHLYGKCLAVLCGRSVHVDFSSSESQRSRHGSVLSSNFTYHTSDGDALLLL


Key:
CX3CR1 = target: T1, CX3CR1; experiment: Chemotaxis assay: RSV G modulation of CX3CR1, receptor-mediated chemotaxis of THP-1 cells (transwell); format: cell-based; conditions: for Chemotactic activity: RSV G (CCR) variants, chemotaxis assay of Example 4, duplicate assays, standard deviations in parentheses
Method: An in vitro assay for RSV G modulation of CX3CR1 measures receptor mediated chemotaxis of human monocyte THP-1 cells {Tripp, R. A. et al. Nature Immunology (2001) 2:732-738}. […]
In more detail, the assay was performed using a transwell insert plate with an 8 µm pore size. Approximately 2 million log-phase THP-1 cells (a human leukemia monocytic cell line) washed twice and suspended in serum-free RPMI 1640 media were added to the upper chamber of the insert plate. Negative control was serum-free media alone to which serum-free media containing 25 nM mAb was added to the lower chamber. As a positive control, media containing 10% FBS was added to the lower chamber. RSV G[ecto] or RSV G[161-197] samples were added to the lower chamber at a final concentration of 5 nM in serum-free media. For samples with RSV G[161-197] and mAbs, RSV G[161-197] was pre-incubated with 5-molar excess mAb for 20 min at room temperature, and then added to serum-free media in the lower chamber, for a final concentration of 5 nM RSV G[161-197] and 25 nM mAb. For samples with anti-CX3CR1 antibody, 2 μL 1 mg/mL anti-CX3CR1 rabbit polyclonal antibody (ThermoFisher Scientific Cat #PA5-19910) was incubated with THP-1 cells for 30 minutes in the upper chamber before being placed into the well. The assembled plates were incubated in a CO2 incubator at 37° C. for 5 h. Cells migrated to the lower chamber were counted, and the chemotactic indices were determined by comparing the fold-increase in cell migration toward the chemoattractant to cell migration toward serum-free media alone. Experiments were performed in at least four biological replicates.
Determination of structures of RSV G CCR protein in complex with the high affinity antibodies 2D10 and 3D3 shown in FIG. 4A-B provide a roadmap to design RSV G immunogens to disable CX3CR1 binding without disrupting the ability to generate high-affinity mAb epitopes. Specifically, six highly conserved amino acids have been identified whose side-chains make no molecular contacts with mAbs 3D3 and 2D10, so they can be substituted without impacting generation of high affinity mAbs similar to these mAbs. These residues are therefore candidates for substitution in order to interfere with binding to CX3CR1. Generally, providing an alteration in charge (charge switch) and/or a change in size or shape resulting in a steric hinderance (steric clash) would be expected to result in a negative impact on such binding. […] Six representative mutants have been tested for their impact on CX3CR1 function as measured by the chemotaxis assay described in Example 4. Table 4 summarizes the results of duplicate assays (with standard deviations) using the standard one letter abbreviations for the amino acid at the indicated residue.

RSV [1] = conditions: mice, day 5 post-inoculation, vs isotype control; cited from earlier work
RSV [2] = conditions: in vitro; cited from earlier work
RSV G protein = RSV G protein (Human respiratory syncytial virus A, UniProt P03423); conditions: read-out: affinity; mAb binding to RSV G protein; cited from earlier work
Chain of RSV G protein (P03423 whole entry): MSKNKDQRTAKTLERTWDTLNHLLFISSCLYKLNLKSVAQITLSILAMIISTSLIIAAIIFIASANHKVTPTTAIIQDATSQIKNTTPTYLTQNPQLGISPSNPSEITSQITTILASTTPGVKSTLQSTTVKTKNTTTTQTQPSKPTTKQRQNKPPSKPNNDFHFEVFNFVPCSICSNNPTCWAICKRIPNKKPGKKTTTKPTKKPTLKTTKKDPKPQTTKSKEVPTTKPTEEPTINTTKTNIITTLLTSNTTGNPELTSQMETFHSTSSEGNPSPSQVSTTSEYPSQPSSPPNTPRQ

| Molecule | Chemotactic activity (CX3CR1) | also measured |
| --- | --- | --- |
| K192→E + K193 →E: RSV G (CCR) double variant, charge switch (NDFHFEVFNFVPCSICSNNPTCWAICKRIPNEEPGKK; not fully specified (bridges); cysteine pairing not given here) | 2.5 (0.7) |  |
| Wild type RSV G (CCR) (NDFHFEVFNFVPCSICSNNPTCWAICKRIPNKKPGKK; not fully specified (bridges); cysteine pairing not given here) | 6.2 (0.7) |  |
| S177→W: RSV G (CCR) variant, S177 to W, steric clash (NDFHFEVFNFVPCSICWNNPTCWAICKRIPNKKPGKK; not fully specified (bridges); cysteine pairing not given here) | 1.2 (0.4) |  |
| Synagis: humanized mouse mAb against RSV F protein |  | effect on total BAL cells (RSV [1]): did not reduce total BAL cells |
| H164→Y: RSV G (CCR) variant, H164 to Y, steric clash (NDFYFEVFNFVPCSICSNNPTCWAICKRIPNKKPGKK; not fully specified (bridges); cysteine pairing not given here) | 3.8 (0.4) |  |
| E166→K + K187 →E: RSV G (CCR) double variant, charge switch (NDFHFKVFNFVPCSICSNNPTCWAICERIPNKKPGKK; not fully specified (bridges); cysteine pairing not given here) | 1.8 (0.1) |  |
| S177→R: RSV G (CCR) variant, substitution of arginine for serine at position 177 (NDFHFEVFNFVPCSICRNNPTCWAICKRIPNKKPGKK; not fully specified (bridges); cysteine pairing not given here) | 0.9 (0.2) |  |
| E166→K: RSV G (CCR) variant, E166 to K, charge switch (NDFHFKVFNFVPCSICSNNPTCWAICKRIPNKKPGKK; not fully specified (bridges); cysteine pairing not given here) | 1.6 (0.7) |  |
| 3D3: high affinity, broadly neutralizing human mAb binding RSV G protein CCR (antibody, V domains shown) VH: EEQLVESGGGLVQPGRSLRLSCVGSGLRFEEHAMHWVRQAPGRGLEWVSGISWNSGSVGYADSVKGRFTTSRDNAKDILFLEMNTLRSEDTALYFCAIMVATTKNDFHYYKDVWGKGTTVTVSS VL: QIVLTQSPATLSLSPGERATLSCRASQSVSNHLAWYQQKPGQAPRLLIYETSNRATGIPPRFSGSGSGTDFTLTISSLEPEDFAVYYCQQRNNWYTFGQGTKLEIK |  | Blocking of RSV G[161-197]-induced chemotaxis by pre-incubation with mAb (CX3CR1; THP-1 cells, level comparable to anti-CX3CR1 polyclonal serum): blocked; viral neutralizing activity (RSV [2]): broad neutralizing activity; Kd (RSV G protein): 1.1 pM |
